One data set relates to mutant I76V. In words: Effect of PRLR inhibitors on proliferation of Ba/F3 cells expressing mutant I76V. It is filed as cell-based, murine. The note with it: 3 days. The protocol:
(§1) Cells were starved for 6 hours in 1% FCS RPMI medium with additives (no PRL), then distributed in 96 well-plates at a density of 5×10^4 cells/well in a final volume of 100 μL. One hundred μL, of [2×] hPRL (and/or antagonist) diluted in the same medium were added after starvation period. Cell survival/proliferation was estimated after 2-3 days of hormonal stimulation by adding 10-20 μL, of WST-1 tetrazolium salt, which is metabolized by living cells (BERNICHTEIN et al., Endocrine, 20, 177-190, 2003). Optical density at 450 nm (OD450) was measured after 1-3 hours of colorimetric reaction using an ELISA plate reader. The experiments were routinely performed at least three times in triplicate or quadruplicate.
Proliferation of stable Ba/F3 cell populations was evaluated in poor medium (1% FCS) in the presence of WT hPRL, or of the PRLR antagonist De11-9-G129R-hPRL, or of AG490, for 3 days. The results are illustrated in FIGS. 12 and 13.

A further data set deals with WT PRLR cells. Briefly: Effect of PRLR inhibitors on proliferation of Ba/F3 cells expressing WT PRLR. It is filed as cell-based, murine. The following applies: no PRL, 1% FCS, 3 days. The protocol: as §1, with “([…]” for “(BERNICHTEIN”, “quadruplicate. Proliferation of stable Ba/F3 cell populations was evaluated in poor medium (1% FCS) in the presence of WT hPRL, or of the PRLR antagonist De11-9-G129R-hPRL, or of AG490, for 3 days. The results are illustrated in FIGS. 12 and 13.” for “quadruplicate.”

The subject of data set [1] is LHRE-luciferase reporter (Stat5). Briefly: LHRE-luciferase reporter assay in HEK 293 cells expressing WT or mutated hPRLR. Format: cell-based, human. An excerpt:
The human PRLR cDNA inserted into the pc/DNA3 eukaryotic vector (InVitrogen, Carlsbad, Calif.) has been generated as described previously (LOCHNAN et al, Mol Cell Endocrinol 114:91-99, 1995; GOFFIN et al, J Biol Chem 271:16573-16579, 1996). The PRLR-responsive LHRE-luciferase reporter gene carries the sequence encoding the firefly luciferase gene under the control of a 6-repeat sequence of the lactogenic hormone response element (LHRE) followed by the minimal thymidine kinase promoter (GOFFIN et al., J Biol Chem, 271, 16573-16579, 1996). LHRE is the DNA binding element of the signal transducer and activator of transcription Stat5, one of the signaling proteins activated by the PRLR once it is activated (WAKAO et al, EMBO J. 13, 2182-2191, 1994).
Cells were routinely cultured in DMEM medium supplemented with 10% FCS, 2 mM glutamine, 50 U/mL penicillin, 50 μg/mL streptomycin. Cells were co-transfected, using the lipofectamine method with two or three plasmids, one encoding the receptor of interest, one encoding the LHRE-firefly luciferase vector as a reporter of PRLR-mediated a effects, and one encoding the Renilla Luciferase which is expressed in a PRL-independent manner and serves as an internal control of transfection efficiency (DOS SANTOS et al., Nat Genet, 36, 720-724, 2004).
After trypsinization, cells were counted and aliquoted in 96-well plates at a density of 50,000 cells/100 μL/well. Plating medium contained 0.5% FCS to allow cell adhesion. Six to eighteen hours (overnight) after plating, cells were stimulated by addition to each well of 100 μL of PRL (1 μg/ml) diluted in FCS-free medium. After 24 hours of stimulation, culture medium was aspirated and cells were lyzed for at least 10 minutes in 50-100 μL of lysis buffer (Promega). Luciferase activity (only firefly luciferase for stable clones, and both firefly and renilla luciferases for transient transfections) for each experimental condition was counted in 10-20 μL of cell lysates for 10 seconds using a luminometer (Lumat LB 9501, Berthold, Nashua, N.H.). […]

Data set [2] concerns Ba/F3 cells. It is filed as cell-based, murine. The following applies: 1% FCS; for constitutive proliferation / survival: absence of PRL. The protocol: Ba/F3 cells are a pro-B murine cell line dependent on IL-3 for growth. Cells were transfected by electroporation using 5-20 μg of plasmid encoding the WT or mutated human PRLR(CMV promoter), then the populations stably expressing the receptor was selected by several passages in G418-containing medium. Ba/F3-hPRLR cells were routinely maintained in RPMI 1640 medium supplemented with 10% heat-inactivated FCS, 2 mM glutamine, 50 U/mL penicillin, 50 μg/mL streptomycin, 700 μg/mL G-418 (for selection of stably transfected cells), and 10-100 ng/mL WT hPRL instead of IL-3 as the growth factor.
as §1

In another data set the test system is hPRL. In words: Binding affinity of WT and mutated PRLR for hPRL, [125I]-hPRL competition with Scatchard analysis, stably transfected HEK 293 cell homogenates. The following applies: stable HEK 293 clones, overnight at room temperature. Set-up: species or system human. The protocol: (§2) Binding affinities of mutated PRLR for hPRL were determined using cell homogenates of stably transfected HEK 293, following a procedure previously described (KINET et al., J Biol Chem, 274, 26033-26043, 1999). Briefly, recombinant hPRL, produced in bacteria E. coli using the pT7L expression vector, and purified as described previously (PARIS et al., Biotechnol Appl Biochem, 12, 436-449, 1990), was iodinated using the Iodogen method, and its specific activity was in the range of 4-5 μCi/μg. Binding assays were performed overnight at room temperature using 150-300 μg cell homogenate protein in the presence of 20,000-30,000 cpm [^125I]-hPRL and increasing concentrations of unlabeled hPRL (competitor). Scatchard analysis was performed to determine the binding affinity of mutated PRLR and the number of PRLR per cell in stable clones or populations.

The test system of data set [3] is Ba/F3 cells. In words: Cell cycle / apoptosis of transfected Ba/F3 stable populations by FACS (propidium iodine). Format: cell-based, murine. The following applies: minimal medium. An excerpt: The cell cycle of transfected Ba/F cells (stable populations) was studied by FACS analysis, using propidium iodine labelling as previously described (JEAY et al., Endocrinology 142:147-156, 2001). Cells were put in minimal medium, with or without PRL for the indicated time.
(In flow cytometry, cells or beads pass a laser one at a time.)

The next data set relates to mutated PRLR. In words: Binding affinity of the PRLR antagonist for mutated and WT PRLR (not shown). Details: species or system human. The method, then: as §2
Similarly, the affinity for the pure PRLR antagonist De11-9-G129R-hPRL (BERNICHTEIN et al., J Biol Chem, 278, 35988-35999, 2003) is also identical for the mutants and the receptors (not shown).

Another data set deals with Stat5. In words: Stat5 phosphorylation by immunoprecipitation and western blot in Ba/F3 populations. It is filed as cell-based, murine. The method, then: Stat5 is the main PRLR signalling mediator, and a known anti-apoptotic factor in Baf cells. Its phosphorylation was analyzed by immunoprecipitation and western blot, using the protocol described in Example 3 for the analysis of PRLR phosphorylation.
Immunoprecipitation was performed with anti-STAT5 antibodies (c17, SantaCruz). The membranes were incubated with anti-PY antibody (4G10, Upstate), and when required re-incubated with anti-STAT5 (c17, SantaCruz) antibodies.
The results are illustrated by FIG. 16: (−)=no PRL, (+)=0,5 μg/ml PRL.

In another data set the test system is PRLR phosphorylation. In words: PRLR tyrosine phosphorylation by immunoprecipitation and western blot in transfected HEK 293 cells. Format: cell-based, human. The method, then:
Receptor phosphorylation on tyrosine residues is the first step of PRLR activation.
Transient or stable transfected cells were starved overnight in FCS-free medium before hormonal stimulation. The next day, cells were stimulated (5-30 min at 37° C.) using various concentrations of WT hPRL as indicated. At the end of the stimulation, cells were washed twice with ice-cold saline buffer and cell pellets were kept frozen until used. Cells were solubilized in 0.5-1 ml lysis buffer (30 min under gentle rotation at 4° C.). Lysates were centrifuged for 10 min at 13,000×g, then supernatants were quantified for their protein content by Bradford assay and used for immunoprecipitation.
For immunoprecipitation studies, 0.5-1 mg of total lysate were incubated with anti-human PRLR (anti extracellular domain of the human PRLR, Zymed, clone 1A2B1), used at 1-5 μl/ml. After overnight rotation at 4° C., immune complexes were captured using 20 μl Protein A Sepharose slurry for 1 additional hour rotation at 4° C. Protein A complexes were precipitated by centrifugation, pellets were washed 3 times in lysis buffer and boiled in 15 μl reducing SDS sample buffer for 5 min at 95° C. Finally, immunoprecipitated samples were analysed using 7.5% SDS-PAGE. Electrophoretic transfer onto nitrocellulose membranes (Bio-Rad) was performed as described (LLOVERA et al., Oncogene, 19, 4695-4705, 2000). […]
(In general: In western blotting, separated proteins are transferred to a membrane and probed.)

We go through 4 molecules from patent publication US8263340B2, “Constitutively active mutants of the prolactin receptor” (Institut National de la Sante et de la Recherche Medicale …, priority 2007, dated 2012).

What is called Kd is the constant that tells how readily two partners part at equilibrium. What is called fold induction is the ratio of treated to control signal.

In the case of `N#CC(=Cc1ccc(O)c(O)c1)C(=O)NCc1ccccc1` [AG490, N-Benzyl-3,4-dihydroxy-benzylidenecyanoacetamide, reference compound], in the data set with mutant I76V (20 μM AG490, no PRL), the “inhibition of constitutive activation (proliferation) of mutant I76V” value was “partially inhibited”. In addition, the “effect on basal proliferation of WT PRLR cells” value with WT PRLR cells is listed as “no effect”.

With “wild-type PRLR: wild-type human prolactin receptor (isoform 1), SEQ ID NO: 1, used as control”, the “basal activity (unstimulated cells), luciferase” value in data set [1] (no PRL, compared to WT receptor) was “devoid of activity”. Further, the “fold stimulation induced by PRL” value in data set [1] (stable clones, PRL 1 μg/ml, 24 hours) stood at 8 fold. In addition, in the data set on Ba/F3 cells [2], the “constitutive proliferation / survival” value was “hardly survived”. Moreover, the Kd in the data set with hPRL was found to be 0.64 nM. The apoptosis with Ba/F3 cells [3] (absence of PRL, 30 h) is 50%. In addition, the “effect of PRL on apoptosis” value in the data set on Ba/F3 cells [3] (with PRL) is on record as “PRL prevents this effect”.

B1: De11-9-G129R-hPRL: pure PRLR antagonist, variant of human prolactin, which interferes with the mechanism of receptor activation by PRL (protein)
chain: RCQVTLRDLFDRAVVLSHYIHNLSSEMFSEFDKRYTHGRGFITKAINSCHTSSLATPEDKEQAQQMNQKDFLSLIVSILRSWNEPLYHLVTEVRGMQEAPEAILSKAVEIEEQTKRLLERMELIVSQVHPETKENEIYPVWSGLPSLQMADEESRLSAYYNLLHCLRRDSHKIDNYLKLLKCRIIHNNNC
For the molecule B1, the “inhibition of constitutive activation (proliferation) of mutant I76V” value with mutant I76V (10 μg/ml antagonist, no PRL) was “inhibited”. For the same molecule, in the data set on mutated PRLR, the “affinity for mutants versus WT receptor” value is recorded as “identical”. For the same molecule, the “effect on basal proliferation of WT PRLR cells” value in the data set with WT PRLR cells was “no effect”.

B2: I76V: mutant human prolactin receptor wherein the Ile residue at position 76 is substituted by a Val residue (protein)
chain: QLPPGKPEIFKCRSPNKETFTCWWRPGTDGGLPTNYSLTYHREGETLMHECPDYITGGPNSCHFGKQYTSMWRTYVMMVNATNQMGSSFSDELYVDVTYIVQPDPPLELAVEVKQPEDRKPYLWIKWSPPTLIDLKTGWFTLLYEIRLKPEKAAEWEIHFAGQQTEFKILSLHPGQKYLVQVRCKPDHGYWSAWSPATFIQIPSDFTMNDTTVWISVAVLSAVICLIIVWAVALKGYSMVTCIFPPVPGPKIKGFDAHLLEKGKSEELLSALGCQDFPPTSDYEDLLVEYLEVDDSEDQHLMSVHSKEHPSQGMKPTYLDPDTDSGRGSCDSPSLLSEKCEEPQANPSTFYDPEVIEKPENPETTHTWDPQCISMEGKIPYFHAGGSKCSTWPLPQPSQHNPRSSYHNITDVCELAVGPAGAPATLLNEAGKDALKSSQTIKSREEGKATQQREVESFHSETDQDTPWLLPQEKTPFGSAKPLDYVEIHKVNKDGALSLLPKQRENSGKPKKPGTPENNKEYAKVSGVMDNNILVLVPDPHAKNVACFEESAKEAPPSLEQNQAEKALANFTATSSKCRLQLGGLDYLDPACFTHSFH
For B2, the fold induction in data set [1] (transient transfections, normalized firefly/renilla luciferase) is reported as 5 fold. The “effect of PRL on proliferation” value in the data set on Ba/F3 cells [2] (10 or 100 ng/ml hPRL) was “further increased”. Also, the “constitutive proliferation / survival” value in the data set with Ba/F3 cells [2] is “moderate but significant constitutive proliferation”. The molecule also came in with a Kd in the data set on hPRL of 0.44 nM. Moreover, the “effect of PRL stimulation on phosphorylation of Stat5” value in the data set on Stat5 (0,5 μg/ml PRL) is “can be increased”. The “phosphorylation of Stat5” value in the data set on Stat5 (absence of PRL stimulation) is recorded as “moderate”. In addition, the “constitutive phosphorylation of PRLR” value in the data set on PRLR phosphorylation (absence of PRL stimulation) is “weaker”. Also, the “effect of PRL stimulation on PRLR phosphorylation” value in the data set with PRLR phosphorylation (with PRL stimulation) is on record as “increased phosphorylation”.
